B1: OR4K15 (parent)
chain: GUUAACGGUCAUAGGCCAUGGAAACUAGGAGCACCAUUUCGCUGCCAGUGAAGAAAUGAACAAAGAAAAUCUGGGCCAGGCAGGCAUCAAAAGAAAUAGUCUUGCGCUCAACCAGAAAGUCUGUAAUCAUUUUAAGGGUA

Variants of: B1
Assay: self-cleavage, relative activity (ratio to wild type); higher = more cleavage; in vitro, sequencing; the parent is a self-cleaving ribozyme

Row | Variant | self-cleavage
1 | A91G A111U | 0.03
2 | U87C U122C | 1.07
3 | A90G A94G | 1.64
4 | A90G A94U | 1.93
5 | A90G A114G | 0.16
6 | A91G A117U | 0.69
7 | U87C U133G | 1.67
8 | U87C U102G | 0.27
9 | U87C U102A | 0.83
10 | A90U A98U | 2.21
11 | A90G A140U | 0.74
12 | A90G A140G | 0.65
13 | A89G U120C | 0.65
14 | A90G U124C | 0.78
15 | A89U A116U | 0.46
16 | A89C | 1.54
17 | A89U | 1.65
18 | A89G | 1.11
19 | A89U A140G | 1.61
20 | A91C U132C | 2.49
21 | A89C A126U | 0.86
22 | A91G A114G | 0.25
23 | A91G A114U | 0.03
24 | A90U A117G | 1.99

Row | Variant | self-cleavage
25 | A91G A98G | 0.26
26 | A89G U131A | 0.3
27 | A89G U132C | 1.4
28 | A89C A96G | 2.38
29 | A91G A96G | 1.3
30 | A89U A98U | 1.41
31 | A89U A117G | 2.46
32 | A89U A117U | 0.7
33 | A91G A116G | 0.55
34 | A91G A116C | 0.04
35 | C88A U102C | 2.23
36 | C88A U102A | 0.58
37 | A89U U100C | 2.55
38 | A91C A96G | 1.39
39 | A90G A135G | 0.51
40 | A89G A90G | 0.71
41 | A90U U103A | 0.34
42 | A90G U100A | 0.31
43 | A90G U100C | 2.32
44 | A90G G123A | 0.48
45 | A90U G106A | 0
46 | A89G A91U | 2.19
47 | A90G A91G | 0.55
48 | A90U U120C | 1.63

Row | Variant | self-cleavage
49 | A90U U120A | 1.85
50 | A90G A125G | 0.23
51 | A90U A140U | 1.2
52 | A91G A94G | 0.83
53 | A91G A94U | 1.02
54 | A90G U122C | 0.65
55 | A89G U139C | 1.02
56 | A89G U139A | 1.67
57 | A90C | 1.55
58 | A90U | 1.96
59 | A90G | 0.95
60 | A90G U131C | 0.31
61 | A89G U100A | 0.5
62 | A89G U100G | 2.03
63 | U87G U108C | 0.02
64 | U87G U103C | 0.22
65 | U87G A126C | 0.12
66 | U87G A90G | 0.82
67 | A89G U124C | 0.93
68 | A90U A110G | 0.08
69 | A90U A110U | 0.89
70 | A89G A110G | 0.12
71 | A91G A129G | 0.58
72 | A90U G99A | 0.52

Row | Variant | self-cleavage
73 | U87G A125G | 0.07
74 | A91G A92C | 0.76
75 | A91G A92G | 0.51
76 | A91G A92U | 1.43
77 | A89G U97A | 0.88
78 | A91C A117G | 2.03
79 | A89U U133C | 1.97
80 | U87G U122C | 0.68
81 | A91C A114G | 0.64
82 | A89C A110G | 0.18
83 | U87G A117G | 0.46
84 | A89U A110U | 1.46
85 | A89U A129C | 0.68
86 | A89U A129G | 1.59
87 | U87C U108G | 0.02
88 | A89U U108C | 0.02
89 | A89U U108G | 0
90 | A89G A98U | 2.15
91 | A89G U122C | 1.03
92 | U87C U120C | 0.21
93 | U87C U120A | 0.99
94 | U87C U132C | 0.92
95 | A91G A110U | 0.36
96 | A91G A118G | 0.94

Row | Variant | self-cleavage
97 | A90G G138U | 1.3
98 | A89U A91G | 1.78
99 | A91C U124C | 1.67
100 | A89U A135G | 1.53
101 | A90U A126U | 0.98
102 | A89G A118C | 0.01
103 | A90G U130C | 0.87
104 | A89U U102A | 0.98
105 | U87G A140G | 0.8
106 | A89C U103C | 0.8
107 | U87C U124C | 0.83
108 | A89C U130C | 1.12
109 | A89U U103A | 1.09
110 | A89U U103C | 1.12
111 | A90G A134G | 1.35
112 | A90G A134U | 1.49
113 | U87C U100C | 2.72
114 | U87C U100A | 0.18
115 | A90U A125G | 0.8
116 | C88U A129G | 1.65
117 | A89G A96G | 0.83
118 | A89G A96U | 1.27
119 | A89U U97C | 1.58
120 | C88A A111G | 0

Row | Variant | self-cleavage
121 | A89U A95G | 2.26
122 | A89U A114G | 0.49
123 | U87C U130G | 0.15
124 | A90G U102C | 1.97
125 | A90G U102A | 0.09
126 | A89U U130C | 1.2
127 | A89C A134G | 1.16
128 | U87G A134G | 0.44
129 | A90U U122C | 2.2
130 | A90G U127C | 0.13
131 | A90U A111U | 0.11
132 | A89U A118C | 0.7
133 | A89U A118G | 1.61
134 | A90U A116U | 0.24
135 | U87C G137A | 2.3
136 | A90G A110G | 0.1
137 | A90G A96U | 1.79
138 | A90G A96G | 1.25
139 | U87C U131A | 0.39
140 | U87C U131C | 1.07
141 | C88A U130C | 1.42
142 | A89G A94U | 0.86
143 | A89G A94G | 1.39
144 | A89C U139C | 1.52

Row | Variant | self-cleavage
145 | A90C U120A | 1.88
146 | C88U A95G | 2.12
147 | U87G | 0.74
148 | A90G A117U | 1.07
149 | A90G A117G | 0.83
150 | U87C G138A | 1.2
151 | A89G G99A | 1.15
152 | A89G A116U | 0.31
153 | A89G A116G | 0.7
154 | A89U U139A | 1.49
155 | C88A A94G | 1.5
156 | A90U A94G | 1.48
157 | C88U A94G | 1.27
158 | A89G U103C | 0.55
159 | A89G A95G | 1.87
160 | U87C U103G | 0.01
161 | U87C U103C | 0.95
162 | A90U A129U | 1.29
163 | A89C G136A | 1.27
164 | A90G A116U | 0.5
165 | A89G U108A | 0.02
166 | A89G U108G | 0.01
167 | A89G U108C | 0.02
